The text below walks through data of paper PMC11724288.

Test [1] addresses TFIIICΔtail complex (S. cerevisiae TFIIIC with τ95 truncated at residue 593) (S. cerevisiae) (UniProt P34111). In words: cryo-EM structure; τB–DNA dimer classes of dataset 1 (2 μM TFIIICΔtail with equimolar 85-bp tRNA^His DNA, 200 mM KCl); map with preferred orientation, no model deposited.
The target is the same in test [2]. In words: mass photometry; TFIIICΔtail at 50 and 100 nM, with and without 85- and 120-bp tRNA^His DNA; 20 mM HEPES pH 8, 100 mM KCl, 2 mM MgCl2, 5 mM DTT.

As usually defined, the stoichiometry N is the number of molecules, sites or subunits per partner or assembly. As to “TFIIICΔtail complex (S. cerevisiae TFIIIC with τ95 truncated at residue 593), P34111 1-1160; P33339 1-1025; P32367 1-593; Q06339 1-672; Q12308 1-588; Q12415 1-435”, the stoichiometry N in test [1] and in test [2] was 2 each time.
